This test deals with ADI-19425 Fab (human, UniProt P0DOY2). Briefly: BLI; 1D3 IgG or 2C1 IgG (67 nM) on anti-human IgG capture sensors; ADI-19425 Fab in serial dilutions from 250 nM to 0 nM; KB buffer, 30°C; 1:1 binding model. The note with it: both partners purified. (In general: In BLI a coated tip is dipped into the sample, and binding shifts an interference pattern.)
ADI-19425 Fab, sequence (VH, as listed by the source, chain 1 of 2): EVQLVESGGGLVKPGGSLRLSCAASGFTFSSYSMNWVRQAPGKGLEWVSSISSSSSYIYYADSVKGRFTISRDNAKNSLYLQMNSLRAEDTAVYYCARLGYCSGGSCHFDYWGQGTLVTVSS
ADI-19425 Fab, sequence (VL, as listed by the source, chain 2 of 2): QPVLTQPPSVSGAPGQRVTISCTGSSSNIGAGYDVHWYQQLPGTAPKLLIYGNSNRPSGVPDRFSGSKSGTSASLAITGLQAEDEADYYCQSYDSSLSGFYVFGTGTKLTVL

B1: 2C1 recombinant IgG (human constant regions) (antibody, V domains shown)
VH: QVQLQQSGAELVRPGASVTLSCKASGYIFTDYEIHWLKQTPVHGLEWIGTSDPETGGFAYTQKFKGKAILTADKSSSTAYMELRSLTSEDSAVYYCTRRPYYGSGAWFAYWGQGTLVTVSA
VL: DIVMTQSHKFMSTSVGDRVSITCKANHDVNIAVAWYQQKPGQSPKLLIYSASYRYTGVPDRFTGSGSGTDFTFTISSVQAEDLAVYYCQQHYDTPRTFGGGTKLEIK
notes: also called 2C1-IgG; 2C1 IgG; source: 293-6E cells, purified (Protein A)
B1 registered a Kd of 1500 pM.

B2: 1D3 recombinant IgG (human constant regions) (antibody, V domains shown)
VH: QVQIQQSGAELMRPGASVKLSCKATGYTFTGYWIEWVKQRPGHGLEWIGEILSGRGTTNYNEKFKGKATFTADTYSNTAYMQLSSLTTGDSAIYYCARGGFLYGDGPFDYWGQGTTLTVSS
VL: DILLTQSPAILSVSPGERVSFSCRASQNIDTHIHWYQQRTNGSPRLLIKYASESISGIPSRFSGSGSGTDFTLTINSVESEDIADYYCQQSNSWPFTFGSGTKLEIK
notes: also called 1D3-IgG; 1D3 IgG; source: 293-6E cells, purified (Protein A)
B2: binding was characterised by a dissociation constant (Kd) of 400 pM.

For orientation: Kd means the equilibrium constant for the complex coming apart. A lower Kd goes with tighter binding.

The values are drawn from publication PMC11496930, “Targeting RSV-neutralizing B cell receptors with anti-idiotypic antibodies” (Cell Reports, 2024).
